Test results as given in patent publication US11771766B2, “Drug delivery system containing phospholipid and cholesterol” (Taiwan Liposome Co., Ltd, priority 2009, dated 2023).

Legend:
[1] = Gel filtration (Sepharose 4B) of drug/delivery vehicle mixtures: percentage of non-associated drug; type: physicochemical; conditions: mixed with DOPC/DOPG/cholesterol vehicle (weight ratio 8.8/1/1.6), 50 mM phosphate buffer pH 6.2
Method: DOPC, DOPG, and cholesterol at a weight ratio of 8.8/1/1.6 were dissolved in chloroform, which was then evaporated under vacuum using a rotary evaporator. The dried mixture of the phospholipids and cholesterol thus produced was suspended in deionized water to form an aqueous suspension. The suspension is then homogenized via sonication using a cup horn sonicator (Misonix Sonicator 3000), sterilized by filtration, filled aseptically in a vial, and lyophilized to form a phospholipid-cholesterol-containing delivery vehicle. The phospholipid concentration in the vehicle was determined by a conventional phosphorus assay to ensure that the vehicle contained an appropriate total amount of the phospholipids.
The mixtures thus formed were diluted 18-100-fold in the same phosphate buffer and an aliquot of each mixture ([…]) was subjected to gel-filtration to determine the percentage of the therapeutic agent that was in non-associated form. Briefly, an aliquot of a mixture was loaded onto a Sepharose 4B column (diameter: 1.8 mm; length: 315 mm). The components in the mixture were then eluted by 50 mM phosphate buffer (pH 6.2). Fractions containing the therapeutic agent in different form, i.e., non-associated form or associated with the phospholipids, were collected, their absorbance being measured at 215 nm and 254 nm. The amount of the therapeutic agent in each fraction was determined based on the values of OD215 and OD254.

[2] = Vitreous Avastin concentration after intravitreal injection, by ELISA (Examples 2-5); type: in vivo, New Zealand White rabbits; conditions: Avastin dose 1.25 mg per eye
Method: The effect of the delivery vehicles mentioned above in prolonging the lifetime of Avastin in eyes was examined following the method described in Bakri et al., Ophthalmology, 2007, 114:5, 855-859. Briefly, New Zealand White rabbits were sedated by intramuscular injection of a mixture containing Zoletil (15 mg/ml) and Rompun (7 mg/ml). Both eyes of each rabbit were injected intravitreally with 50 μl of Avastin (25 mg/ml) or one of the aqueous suspensions mentioned above (at an Avastin dose of 1.25 mg per eye) using a 30-gauge needle. Rabbits were sacrificed at 7 days or 21 days after injection and their eyes were promptly enucleated. The vitreous humor was isolated from each eye together with retina and Avastin concentration was determined by ELISA as follows.
A F96 MaxiSorp™ NUNC-IMMUNO plate was coated with VEGF (10 μg/ml in PBS, pH 7.4; 100 μl/well) at 4° C. overnight. The VEGF-coated plate was washed with PBS and then blocked with a blocking buffer (5% skim milk in PBS) at room temperature for 1 hour. […] The absorbance at 450 nm (OD450) of each well was determined by an ELISA reader. Various pre-determined Avastin concentrations (3.125-25 ng/ml) were used to establish a standard Avastin concentration/OD450 curve. The Avastin concentration in each sample was determined based on its OD450 value in view of the standard curve. […]

[3] = Pharmacokinetic properties of vitreous Avastin after intravitreal injection (Example 6); type: in vivo, Rabbits
Method: Rabbits were injected intravitreally with either Avastin alone (control rabbits) or Avastin mixed with a delivery vehicle containing DOPC/Cholesterol/DOPG at a ratio 67.5/25/7.5 (test rabbits). Vitreous Avastin concentrations of the control rabbits were examined by ELISA at days 7, 21, and 28 post injection and those of the test rabbits were examined at days 7, 21, 28, 35, 41, and 49 post injection.
In a similar study, the vitreous Avastin concentrations were monitored 7, 28, 49, 70, 91 and 112 days post intravitreal injection.

Compound: C[C@@H]1C[C@H]2[C@@H]3CCC4=CC(=O)C=C[C@]4(C)[C@@]3(F)[C@@H](O)C[C@]2(C)[C@@]1(O)C(=O)COP(=O)(O)O [Dexamethasone sodium phosphate, dexamethasone sodium phosphate]
- Percentage of Non-Associated Drug (% ± S.D.) [1]: 68.5 ± 0.5%

Compound: N[C@@H](Cc1c[nH]c2ccccc12)C(=O)O [Tryptophan, tryptophan]
- Percentage of Non-Associated Drug (% ± S.D.) [1]: 86.1 ± 0.8%

Compound: N[C@@H](Cc1ccc(O)cc1)C(=O)O [Tyrosine, tyrosine]
- Percentage of Non-Associated Drug (% ± S.D.) [1]: 80.3 ± 0.1%

Compound: Avastin: an antibody specific to vascular endothelial growth factor
- Avastin Concentration ([2]; vitreous humor with retina, seven days after intravitreal injection): 247 ± 27 µg/mL
- Avastin Concentration ([2]; vitreous, 21 days after intravitreal injection): 37 ± 7 µg/mL
- vitreous Avastin concentration ([3]; 28 days after intravitreal injection): 13 µg/mL
- t1/2 (half-life of intravitreal Avastin) ([3]; control rabbits, vitreous): 93.6 h
- vitreous concentration of Avastin over time (in words, FIG. 1) ([3]; days 7 to 49 after intravitreal injection): decreased much rapidly over time
- AUC(7-∞) ([3]; vitreous, from the 7th day to infinity): 3294 µg·days/mL
- AUC(7-112) ([3]; vitreous, from the 7th day to the 112th day): 3294 µg·days/mL
- AUC(112-∞) ([3]; vitreous, from the 112th day to infinity): 0 µg·days/mL
- Percentage of Non-Associated Drug (% ± S.D.) [1]: 62.1 ± 0.9%

Compound: HFRRHLC [HFRRHLC (SEQ ID NO: 1) peptide]
- Percentage of Non-Associated Drug (% ± S.D.) [1]: 71.9 ± 0.2%

Compound: HWRGWVC [HWRGWVC (SEQ ID NO: 2) peptide]
- Percentage of Non-Associated Drug (% ± S.D.) [1]: 52.4 ± 0.2%

Compound: bovine serum albumin
- Percentage of Non-Associated Drug (% ± S.D.) [1]: 87.2 ± 0.4%
